In the supplement of paper PMC12764529:
± gives the half width of the 95% confidence interval.

What was measured:
[1] = folding stability dG unfold from trypsin proteolysis; higher = more stable
How it was run: (§1)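 Mini-proteins designed to be under 80 residues and free of cysteine were carried in a PA-tagged cDNA display construct and digested with trypsin and with chymotrypsin. Each protease was applied at 11 threefold-diluted concentrations, alongside a no-protease condition, before sequencing. K50 came from Bayesian fitting of the sequencing counts, and unfolding free energy was obtained by comparing it with a sequence-predicted unfolded-state K50 and a shared folded-state K50, for each protease separately or for both together. Designs were retained only if their AlphaFold2 dimer inter-PAE exceeded 15.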

[2] = folding stability dG unfold from chymotrypsin proteolysis; higher = more stable
How it was run: as §1

[3] = folding stability dG unfold (combined trypsin and chymotrypsin); higher = more stable
How it was run: as §1

Sequence	folding stability dG unfold [1]	folding stability dG unfold [2]	folding stability dG unfold [3]
SAGGSAPGEPIFIRWKIEHPNGNPWTIPFPIKTEEQALEQAIRFAESIAKKLGNPNVKIKIDEIIPSAGGSA [r15_698_TrROS]	1.11 ± 0.12 kcal/mol	0.575 ± 0.44 kcal/mol	0.914 ± 0.21 kcal/mol
SAGGSAGGSMSTVSTVTHPDGTPLTVTTTPLPDGTVLATYSAPDGTVVATFDVSTGTTVVVPLSAGGSAGGS [r20_159_JUSTAS]	1.39 ± 0.067 kcal/mol	1.5 ± 0.079 kcal/mol	1.44 ± 0.074 kcal/mol
SAMVVSEELSPEGTRTTTTFNPATGTSTTTTTPIPEEPPLPPVSIPTSLSPEEREALREELEAAGVPVVLGS [r1_242_JUSTAS]	1.22 ± 0.047 kcal/mol	0.0811 ± 0.093 kcal/mol	0.652 ± 0.079 kcal/mol
SAGGSAGGYIMIPPGAEIDVNPENGKIKIKFRNPDNGEEEKITFDVPPGVKIHMWDNWIMIELPSAGGSAGG [r6_804_TrROS]	3.3 ± 0.18 kcal/mol	3.14 ± 0.12 kcal/mol	3.29 ± 0.29 kcal/mol
SKKVEIKIKVERNEDGYLTVTIEIRAETEEELLEAAKELAKALFPEDVEIRVEKLPDGTVKITIVVKLPPSA [r9_646_TrROS_Hall]	2.65 ± 0.15 kcal/mol	1.9 ± 0.11 kcal/mol	2.29 ± 0.14 kcal/mol
SAGGSAGGSDVEDIIKKLKIPPGYRMRFPDGKSHKFNNLDDIRNLAEMGMPPDNIDKIQIQPYSAGGSAGGS [r12_430_TrROS]	-0.152 ± 0.22 kcal/mol	0.09 ± 0.28 kcal/mol	0.0517 ± 0.15 kcal/mol
SAGGKPNWVWFKITINVTPEQLENMTLDEIADRVIDELMKLGFPIKKIEIDEIQWDGDRVTIYIRIRVSAGG [r13_432_TrROS]	4.18 ± 0.16 kcal/mol	4.59 ± 0.099 kcal/mol	4.35 ± 0.14 kcal/mol
SAGGIKELAKKGYEIKEVTVRVRNKDGSVYEITEIKVVDGELYIKVKNKKTGKIEEKKIPLKDIEIVPSAGG [r13_340_TrROS_Hall]	1.19 ± 0.045 kcal/mol	2.12 ± 0.029 kcal/mol	1.83 ± 0.09 kcal/mol
SAGGSAGGSKVKIETVENEDGVKFERVVDEETGKTVFLAKNKKTGKLYLFVITPDGEIKVFELSAGGSAGGS [r12_474_TrROS_Hall]	1.42 ± 0.033 kcal/mol	2.6 ± 0.049 kcal/mol	2.27 ± 0.089 kcal/mol
SAGMKAYNIKELKIEKIEKKGNKIKIKISGKGKFYFKTFSNGSAIIYIKKTNKAYYIDSNGKIVYIKDTSAG [r5_348_TrMRF]	1.75 ± 0.12 kcal/mol	1.56 ± 0.13 kcal/mol	1.76 ± 0.27 kcal/mol
SAGGSLPPSTVIESEIVIEIEIENNISGIPGKTEKAFIIIKVTVTTDENGNLSSSVEIEIIPAKDLSAGGSA [r2_448_TrMRF]	3.22 ± 0.23 kcal/mol	2.97 ± 0.21 kcal/mol	3.26 ± 0.41 kcal/mol
SAGGMKTYEYELELEGGGRLRIKITEDPNNPVYTVTFYSPEGKKLKTITIPANSIEEALKEAIELLKSAGGS [r16_158_JUSTAS]	4.6 ± 0.29 kcal/mol	4.79 ± 0.12 kcal/mol	4.73 ± 0.18 kcal/mol
SAGGSAMEIKTLETKTVKTEKLPDGSTKVTTTYKTVDPSGGKTSNYIKTTLYAPDGKKTSTEVKEKSAGGSA [r15_758_JUSTAS]	0.355 ± 0.048 kcal/mol	1.03 ± 0.098 kcal/mol	0.773 ± 0.1 kcal/mol
SAGGSAGGSPPPITIFTAYKDPEDGPYWMKRRKINPDNGNIEEEWYPADDLADHGLPPGDIFISAGGSAGGS [r12_123_TrROS]	-0.566 ± 0.88 kcal/mol	0.413 ± 0.33 kcal/mol	0.203 ± 0.2 kcal/mol
SAGGSMPLTLEIKAPASTPASEIVATLKKYGPVTVTLGDGRTYNIPRDKPPNLKGLPLAPDAVLTLVVSAGG [r13_399_JUSTAS]	-0.08 ± 0.1 kcal/mol	-0.742 ± 0.4 kcal/mol	-0.263 ± 0.091 kcal/mol
SAGGMVRVTVVPTPGRAGEPVTLVIEHPDGTRTVPLPPDTSPEEARAAAERLAEEEGLDVAEVVFEASAGGS [r16_753_JUSTAS]	0.243 ± 0.07 kcal/mol	0.428 ± 0.086 kcal/mol	0.376 ± 0.098 kcal/mol
SAGGPISKKKIVTAPVSYDPATGKYTITLTYPDSTYTIPSDLSDLEEALKRAKEKLEKETGIPVETVLGSAG [r5_251_JUSTAS]	0.576 ± 0.032 kcal/mol	1 ± 0.11 kcal/mol	0.918 ± 0.074 kcal/mol
SAGGSAGGSAMLTIPVTTPEEARELAEELLRRGYLRVEPTEDGDVTVIHPDGVPTRILVPTESAGGSAGGSA [r18_126_TrMRF]	0.471 ± 0.043 kcal/mol	0.551 ± 0.11 kcal/mol	0.558 ± 0.059 kcal/mol
SAGLPIPEGATVKTLESSESVEGNKTVKTDKIIVTFPDGSTKEVEVVTTYDPNGNPTTTYIVGNKKIPLSAG [r5_507_JUSTAS]	1.45 ± 0.052 kcal/mol	1.19 ± 0.058 kcal/mol	1.32 ± 0.059 kcal/mol
SAGGSATVTVTLVVRDPATGELTTVTATVTLEAAPAPVSVSLSLSLSRDPNGNLSLSLSVSVTVEGSAGGSA [r2_326_TrROS_Hall]	4.02 ± 0.094 kcal/mol	5.93 ± 0.13 kcal/mol	> 6 kcal/mol
SPNMQPVEMEFKIKVPGKPVDIKIEMWRMPDGQTRMDIRYPDGRSIMFNPSNGSIKIYDPKDGKPLAEISSA [r9_970_TrROS]	1.1 ± 0.057 kcal/mol	1.47 ± 0.073 kcal/mol	1.38 ± 0.16 kcal/mol

Sequence	folding stability dG unfold [1]	folding stability dG unfold [2]	folding stability dG unfold [3]
SIVIRLPDGKPLMIQLTMYYPPDNDKIEIPVEIYDGGKPRTFEHEIPPGDNKPVTFSLHIPLPPGAYIKISA [r9_973_TrROS]	2.17 ± 0.12 kcal/mol	2.45 ± 0.14 kcal/mol	2.38 ± 0.23 kcal/mol
SAGGSAGGSAGGDPKAKPKKYYLIDLNARLVGVEVDPETGELTVTYELEGATLTLRFEGSAGGSAGGSAGGS [r10_962_TrMRF]	2.24 ± 0.1 kcal/mol	2.78 ± 0.045 kcal/mol	2.65 ± 0.14 kcal/mol
SAGGSSPASVRTSQTTVTDPATGRTRSVTVTTLPDGTTVSTFDSPGGSLVTTTTTPDGTTTTVTADSAGGSA [r2_109_JUSTAS]	-0.0855 ± 0.13 kcal/mol	1.38 ± 0.022 kcal/mol	1.05 ± 0.066 kcal/mol
SAGSVEVSVSGNEIHITAPEGISLEELIELIKKLFPGADIGEVSVEKLPDGRYVATFKAGFKPPSPDELSAG [r5_110_TrMRF]	4.41 ± 0.25 kcal/mol	4.29 ± 0.14 kcal/mol	4.34 ± 0.12 kcal/mol
SAGGVVEVEVPDLSLEEALERVREEYPDVPEFTLTLPSGERVEFRVEGDRVEVVRREPLGPRPPELESAGGS [r8_225_JUSTAS]	1.63 ± 0.1 kcal/mol	1.51 ± 0.029 kcal/mol	1.54 ± 0.066 kcal/mol
SAGGSAGGSAFVWNPDTGTFIQLDPNDGTIEVFEIENDNDGKLEPIGTVEVDPDDPDKGTITSAGGSAGGSA [r18_448_TrROS]	1.75 ± 0.13 kcal/mol	1.23 ± 0.069 kcal/mol	1.5 ± 0.1 kcal/mol
SGREEEIAEELREKLLAEGYTEVEVEIEVRPDPNSDNVLVTVTVRATKKDAEGNWKTYEETIPVLIPAEASA [r9_440_JUSTAS]	3.12 ± 0.26 kcal/mol	3.23 ± 0.15 kcal/mol	3.11 ± 0.25 kcal/mol
SAGMVKITVPSSVGPVDPSKALTFEKDDTRYILVPGEVAKEIEEKYPDLPIEIEPMSEEEAEKILKELSAGG [r19_271_JUSTAS]	-0.0536 ± 0.2 kcal/mol	0.624 ± 0.16 kcal/mol	0.258 ± 0.41 kcal/mol
SAGGSIELPLEEGSTAEVELELRVPFYRLDANGRPVAPEERTLRIRARFTRLPDGRVLVEVEVEVESAGGSA [r2_154_TrMRF]	4.46 ± 0.17 kcal/mol	5.24 ± 0.1 kcal/mol	4.98 ± 0.13 kcal/mol
MRITLELEDGTRVEIEFERKEDGTLVVRIKVTRKDGKTVEIEVVVRSKDGKITPEELERALREALEELLKKS [r1_124_TrROS_Hall]	4.19 ± 0.24 kcal/mol	4.06 ± 0.33 kcal/mol	4.21 ± 0.38 kcal/mol
SAGGSAGGSGNATVMLMFPIEISITVMEWDNGKPKMKTQEIEIWVMIMIPVPPPPDPGDPEWNSAGGSAGGS [r12_713_TrROS]	2.84 ± 0.076 kcal/mol	4.09 ± 0.071 kcal/mol	3.76 ± 0.11 kcal/mol
SAGGGMKLTITVTNADGSTTTETLTLGDLEKALEFLESDPTASLASIEIKPVPDTSEVEMNVSLTVPASAGG [r13_796_JUSTAS]	1.29 ± 0.056 kcal/mol	1.55 ± 0.035 kcal/mol	1.47 ± 0.071 kcal/mol
SAGGSAGGSSPPVTVIPLKIPVDPDTTPEEIKEELAAKVPPNSSVKVDTKPGSGTVNVTVTISSAGGSAGGS [r12_12_JUSTAS]	1.12 ± 0.061 kcal/mol	-0.14 ± 0.11 kcal/mol	0.753 ± 0.14 kcal/mol
QRVLPFKNPDGDYWVMIMNPNGDPLVEHRIPNDPEQMEKAIHKLMEQLPNFDPEDLRIAVMNPKNGESQEIS [r1_55_TrROS]	0.222 ± 0.16 kcal/mol	0.868 ± 0.12 kcal/mol	0.61 ± 0.13 kcal/mol
SASSVEKEFDSIEDALKAIKEALAKKVPVKMKMDPETVKELKKAGFPDIDVTKEKLPNGNEYYLLELLFSAG [r14_127_JUSTAS]	1.06 ± 0.019 kcal/mol	1.2 ± 0.051 kcal/mol	1.15 ± 0.058 kcal/mol
MKVVFTEEELPDAKVRKVFDPETGTITETVTYPSTSYTVTSTATITSFDPETGKVTITTTVSAPPEAGIPAS [r1_234_JUSTAS]	1.87 ± 0.05 kcal/mol	1.31 ± 0.057 kcal/mol	1.63 ± 0.13 kcal/mol
SAGGSAGGSKTILIVLPPGEELTPEQLKALAAALPPDATLTILVYDPETKELHVFTFKLPEGLSAGGSAGGS [r12_913_TrROS_Hall]	2.99 ± 0.069 kcal/mol	4.14 ± 0.054 kcal/mol	3.87 ± 0.081 kcal/mol
SAGGSAGGKEFEIEKVEITVENGTITIRMIVRDKETNEYYEVEKTITFDPETKELHVEIKVKKVSAGGSAGG [r6_604_TrROS_Hall]	4.19 ± 0.13 kcal/mol	3.23 ± 0.1 kcal/mol	3.91 ± 0.16 kcal/mol
SAGGSAMKITLKTKDGKEIEIEVEEKTNENGEKYLVLKIKDKKTNKEYTIVMSKEELEELLKKLLSSAGGSA [r15_92_TrROS_Hall]	4.33 ± 0.21 kcal/mol	5.48 ± 0.11 kcal/mol	5.55 ± 0.17 kcal/mol
SAGGSAGGNKPIMVRIKIWHDNGKTRRFFVQIPEGFDDPSELASELAKEFNKQYPNYRIEVEPFSAGGSAGG [r6_132_TrROS]	2.55 ± 0.052 kcal/mol	2.86 ± 0.03 kcal/mol	2.78 ± 0.13 kcal/mol
SAGGEVKVEIKYDKKKNKIEIKVIVRDKETGEWKELSAEEIAKLLKKKLKLPNVKEIKVEVYEPGEKPSAGG [r13_327_TrROS_Hall]	1.31 ± 0.11 kcal/mol	1.98 ± 0.12 kcal/mol	1.97 ± 0.18 kcal/mol
